The text below walks through data of publication PMC2822101 (Journal of molecular biology, 2009).

To fix the notation:
B2: aggregated glucose-6-phosphate dehydrogenase (G6PDH) from Leuconostoc mesenteroides (enzyme, UniProt P11411 1-486, looked up)
chain: MVSEIKTLVTFFGGTGDLAKRKLYPSVFNLYKKGYLQKHFAIVGTARQALNDDEFKQLVRDSIKDFTDDQAQAEAFIEHFSYRAHDVTDAASYAVLKEAIEEAADKFDIDGNRIFYMSVAPRFFGTIAKYLKSEGLLADTGYNRLMIEKPFGTSYDTAAELQNDLENAFDDNQLFRIDHYLGKEMVQNIAALRFGNPIFDAAWNKDYIKNVQVTLSEVLGVEERAGYYDTAGALLDMIQNHTMQIVGWLAMEKPESFTDKDIRAAKNAAFNALKIYDEAEVNKYFVRAQYGAGDSADFKPYLEELDVPADSKNNTFIAGELQFDLPRWEGVPFYVRSGKRLAAKQTRVDIVFKAGTFNFGSEQEAQEAVLSIIIDPKGAIELKLNAKSVEDAFNTRTIDLGWTVSDEDKKNTPEPYERMIHDTMNGDGSNFADWNGVSIAWKFVDAISAVYTADKAPLETYKSGSMGPEASDKLLAANGDAWVFKG

Experiment in all cases: retention with aggregates on a 0.1-μm filter, SDS-PAGE
Assay [1] deals with B2.
In a further assay the target is ClpB95(E279Q/E678Q) (E. coli, UniProt P63284 1-857, E279Q | E678Q).
The target of the next assay is DnaK (UniProt P0A6Y8 1-638).

B1: DnaJ (natural protein, UniProt P08622 1-376, looked up)
chain: MAKQDYYEILGVSKTAEEREIRKAYKRLAMKYHPDRNQGDKEAEAKFKEIKEAYEVLTDSQKRAAYDQYGHAAFEQGGMGGGGFGGGADFSDIFGDVFGDIFGGGRGRQRAARGADLRYNMELTLEEAVRGVTKEIRIPTLEECDVCHGSGAKPGTQPQTCPTCHGSGQVQMRQGFFAVQQTCPHCQGRGTLIKDPCNKCHGHGRVERSKTLSVKIPAGVDTGDRIRLAGEGEAGEHGAPAGDLYVQVQVKQHPIFEREGNNLYCEVPINFAMAALGGEIEVPTLDGRVKLKVPGETQTGKLFRMRGKGVKSVRGGAQGDLLCRVVVETPVGLNERQKQLLQELQESFGGPTGEHNSPRSKSFFDGVKKFFDDLTR
With B1, the binding result in assay [1] was “binds”. For the molecule B2, the binding result with ClpB95(E279Q/E678Q) and with DnaK was “binds” each time.
